According to PMC4810211, “DNA Aptamers against Taiwan Banded Krait α-Bungarotoxin Recognize Taiwan Cobra Cardiotoxins”:

Experiments:
[1] = target: alpha-bungarotoxin (α-Bgt) (Bungarus multicinctus (Taiwan banded …, UniProt P60615 22-95)); test: fluorescence quenching titration; 10 mM Tris-HCl pH 7.5, 1 mM EDTA, 100 mM NaCl; temperature not stated; […]; conditions: protein: native; tags: none; label: 5'-FAM
cardiotoxin 3 (CTX3) = target: T1, cardiotoxin 3 (CTX3) (Naja atra (Taiwan cobra), UniProt P60301 22-81); test: fluorescence quenching titration; 10 mM Tris-HCl pH 7.5, 1 mM EDTA, 100 mM NaCl; temperature not stated; fluorescence with 4 nM aptamer (ex 480/em 520 nm); EMSA with 5 uM aptamer, 20 min, 2% agarose, TAE; conditions: protein: native, tags: none, label: 5'-FAM
T1 sequence: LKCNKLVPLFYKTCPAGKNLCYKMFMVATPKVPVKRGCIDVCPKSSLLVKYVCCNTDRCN

[2] = target: T2, cardiotoxin-like protein (CLBP) (Naja atra (Taiwan cobra), UniProt P62375 22-83); test: fluorescence quenching titration; 10 mM Tris-HCl pH 7.5, 1 mM EDTA, 100 mM NaCl; temperature not stated; […]; conditions: protein: native; tags: none; label: 5'-FAM
T2 sequence: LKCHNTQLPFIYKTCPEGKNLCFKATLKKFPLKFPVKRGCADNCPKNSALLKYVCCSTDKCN

cardiotoxin 5 (CTX5) = target: T3, cardiotoxin 5 (CTX5) (Naja atra (Taiwan cobra), UniProt Q98961 22-81); test: as above; conditions: protein: native; tags: none; label: 5'-FAM
T3 sequence: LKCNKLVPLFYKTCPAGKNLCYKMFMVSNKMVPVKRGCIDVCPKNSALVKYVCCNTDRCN

cardiotoxin N (CTXN) = target: T4, cardiotoxin N (CTXN) (Naja atra (Taiwan cobra), UniProt P80245 22-81); test: as above; conditions: protein: native; tags: none; label: 5'-FAM
T4 sequence: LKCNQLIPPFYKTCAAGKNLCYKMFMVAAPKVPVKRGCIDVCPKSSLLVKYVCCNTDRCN

cardiotoxin 4 (CTX4) = target: T5, cardiotoxin 4 (CTX4) (Naja atra (Taiwan cobra), UniProt P01443 22-81); test: fluorescence quenching titration; 10 mM Tris-HCl pH 7.5, 1 mM EDTA, 100 mM NaCl; temperature not stated; fluorescence with 4 nM aptamer (ex 480/em 520 nm); EMSA with 5 uM aptamer, 20 min, 2% agarose, TAE; conditions: protein: native; tags: none; label: 5'-FAM
T5 sequence: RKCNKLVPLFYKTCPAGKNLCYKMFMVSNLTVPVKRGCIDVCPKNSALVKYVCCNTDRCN

cardiotoxin 2 (CTX2) = target: T6, cardiotoxin 2 (CTX2) (Naja atra (Taiwan cobra), UniProt P01442 22-81); test: as above; conditions: protein: native; tags: none; label: 5'-FAM
T6 sequence: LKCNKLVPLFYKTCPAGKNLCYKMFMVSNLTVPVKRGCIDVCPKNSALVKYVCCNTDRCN

cardiotoxin 1 (CTX1) = target: T7, cardiotoxin 1 (CTX1) (Naja atra (Taiwan cobra), UniProt P60304 22-81); test: as above; conditions: protein: native; tags: none; label: 5'-FAM
T7 sequence: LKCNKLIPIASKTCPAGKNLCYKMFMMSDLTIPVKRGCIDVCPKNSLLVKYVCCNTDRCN

alpha-bungarotoxin (α-Bgt) (Bungarus multicinctus, sequence (P60615 22-95): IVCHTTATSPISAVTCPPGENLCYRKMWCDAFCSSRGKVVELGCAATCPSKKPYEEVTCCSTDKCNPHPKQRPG

| Binder | Kd [1] [nM] | Kd (cardiotoxin 3 (CTX3)) [nM] | further results |
| --- | --- | --- | --- |
| AGAAACGTAGCGGTAACTGCTAGAATGCGCCGAGAGAGCG (ssDNA) [FAM-bgt4] | 280 | 1170 |  |
| GCGAGGTGTTCGAGAGTTAGGGCGACATGACCAAACGTT (ssDNA) [FAM-bgt1] | 2210 | 2250 | Kd [2]: 7190 nM; Kd (cardiotoxin 5 (CTX5)): 17200 nM; Kd (cardiotoxin N (CTXN)): 8850 nM; Kd (cardiotoxin 4 (CTX4)): 8130 nM; Kd (cardiotoxin 2 (CTX2)): 6290 nM; Kd (cardiotoxin 1 (CTX1)): 2510 nM |
| GCGAGGTGTTCGAGAGTTAGGGCGACATGACCAAACGTT (ssDNA) [FAM-bgt1-DABCYL] |  |  | Kd (cardiotoxin 3 (CTX3); 3'-DABCYL): 2350 nM |
| AGGGCACAGAGAAGAAGTCGTGGATTTGAATGGTTTTGGT (ssDNA) [FAM-bgt2] | 460 | 260 |  |
| ATCATGTCTTTTCGGGATGGGCAAGAAGGGAAATAATGC (ssDNA) [FAM-bgt3] | 140 | 1260 |  |
